From patent publication US6723697B2, “IL-16 antagonists” (Research Corporation Technologies, Inc., priority 1999, dated 2004)

Columns and labels:
[1] = molecular target: T1, murine rIL-16 (Mus musculus, UniProt O54824); test: IL-16-stimulated T-lymphocyte migration, human CD4 D4 point mutants; type: cell-based; details: human CD4 D4 wild type or point mutant, rIL-16 10^-9 M
T1 construct: polyhistidine fusion protein containing the 119 C-terminal residues encoded by the previously reported murine cDNA; polyhistidine (cleaved yes); made in house; host or cells: Escherichia coli strain HMS 174, vector pET16b
T1 sequence (O54824 1204-1322): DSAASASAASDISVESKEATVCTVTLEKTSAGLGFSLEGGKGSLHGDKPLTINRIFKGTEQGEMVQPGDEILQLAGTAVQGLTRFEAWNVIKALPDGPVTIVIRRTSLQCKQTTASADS
Protocol: Point mutations at Leu 348 and Leu 349 in human CD4 were prepared as follows.
Initially 100 ng of wild type human CD4 cDNA (Richard Axel, Columbia University, N.Y.) contained within the mammalian expression vector pcDNA3.1(−) (Invitrogen, Carlsbad, Calif.) was subjected to the polymerase chain reaction (PCR) in the presence of 125 ng of each set of primer pairs. PCR conditions were as follows:
The time for the elongation step varied according to the relationship of 2 minutes per kilobase of plasmid DNA length. The product was then subjected to restriction digestion with the enzyme Dpn for 1 h. at 37° C. Dpn is specific for methylated nucleotides and therefore will only cut the original wide type CD4-plasmid DNA. The transformation reaction required the addition of 1 μl of the digest to 50 μl of Epicurean Blue Eschericia coli which was incubated on ice for 30 min. and finally heat shocked 42° C., 45 sec to seal the supercompent bacteria. The resultant bacteria culture was selected on ampicillin plates and sequenced to confirm mutagenesis.
Cell migration was assessed using a modified Boyden chamber. […] Cell migration is expressed as the mean % control migration.
Results from multiple experiments were analyzed using Student's t test for paired variables, and Tukey's test for multiple variables. A P value<0.05 was considered significant.
(FIGS. 10A and 10B). […] (FIGS. 11A and 11B).

[2] = molecular target: HIV-1 gp120 (Human immunodeficiency virus type 1 group M subtype B, UniProt P04578); details: human CD4 point mutant
Protocol: Cell migration was assessed using a modified Boyden chamber. (Center, et al., (1982) J. Immunol. 128:2563-2568; Cruikshank, et al., (1982) J. Immunol. 128:2569-2574). […] For blocking experiments, 10^−9 M murine rIL-16 with various concentrations of oligopeptides were mixed and placed in the lower well. The upper and lower wells were separated by 8 μm pore size nitrocellulose filter membrane (Neuro Probe). Following incubation (3 h, 37° C.), the membranes were removed, stained with hematoxylin, and dehydrated. Cell migration was quantified by counting the number of cells migrating beyond a depth of 40 μm. Counts were compared with control cells exposed to M199-HPS alone, which was normalized to 100%. Cell migration is expressed as the mean % control migration. All samples were tested in duplicate, with five high power fields counted in each duplicate.

B1: NLTCEVWGPTSPKLMLSLKLENKEAKVSKREKAVWVLNPEAGMWNCLLSDSGQVLLESNIKVLPTWSTPVQPM (peptide)
chain: NLTCEVWGPTSPKLMLSLKLENKEAKVSKREKAVWVLNPEAGMWNCLLSDSGQVLLESNIKVLPTWSTPVQPM
modifications: OTHER INFORMATION: Description of Artificial Sequence:IL-16 antagonist peptide
notes: human CD4 D4 with glutamine 346 to asparagine
- inhibition of IL-16-stimulated T-lymphocyte migration [1]: IL-16-inhibitory activity
- inhibition of IL-16-stimulated T-lymphocyte migration ([1]; listed as human CD4 (Q346→N)): no loss in inhibition
- inhibition of HIV-1 gp120-stimulated T-lymphocytes [2]: no loss in inhibition
